Key:
Assay in all cases: cell-based or functional assay
[1] = target: T1, human CD20 on CD20-expressing cell lines (human, UniProt P11836 1-297)
T1 sequence: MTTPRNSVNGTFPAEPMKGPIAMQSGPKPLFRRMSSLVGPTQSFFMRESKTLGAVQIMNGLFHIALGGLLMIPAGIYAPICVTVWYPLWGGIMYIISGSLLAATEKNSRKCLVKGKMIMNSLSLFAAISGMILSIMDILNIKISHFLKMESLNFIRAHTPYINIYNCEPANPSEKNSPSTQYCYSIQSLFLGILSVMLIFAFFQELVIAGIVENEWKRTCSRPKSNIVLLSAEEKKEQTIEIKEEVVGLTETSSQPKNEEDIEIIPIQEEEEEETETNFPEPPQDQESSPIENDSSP

[2] = target: T1, human CD20 on CD20-expressing cell lines; remark: listed apart in the source
[3] = target: T1, human CD20 on CD20-expressing cell lines; remark: listed apart in the source
[4] = target: T1, human CD20 on CD20-expressing cell lines; remark: listed apart in the source

B1: 1.5.3 IgM+V15J (bispecific anti-CD20 x anti-CD3 IgM pentamer) (bispecific antibody)
heavy: EVQLVQSGAEVKKPGESLKISCKGSGYSFTSYWIGWVRQMPGKGLEWMGIIYPGDSDTRYSPSFQGQVTISADKSITTAYLQWSSLKASDTAMYYCARHPSYGSGSPNFDYWGQGTLVTVSSGSASAPTLFPLVSCENSPSDTSSVAVGCLAQDFLPDSITFSWKYKNNSDISSTRGFPSVLRGGKYAATSQVLLPSKDVMQGTDEHVVCKVQHPNGNKEKNVPLPVIAELPPKVSVFVPPRDGFFGNPRKSKLICQATGFSPRQIQVSWLREGKQVGSGVTTDQVQAEAKESGPTTYKVTSTLTIKESDWLSQSMFTCRVDHRGLTFQQNASSMCVPDQDTAIRVFAIPPSFASIFLTKSTKLTCLVTDLTTYDSVTISWTRQNGEAVKTHTNISESHPNATFSAVGEASICEDDWNSGERFTCTVTHTDLPSPLKQTISRPKGVALHRPDVYLLPPAREQLNLRESATITCLVTGFSPADVFVQWMQRGQPLSPEKYVTSAPMPEPQAPGRYFAHSILTVSEEEWNTGETYTCVVAHEALPNRVTERTVDKSTGKPTLYNVSLVMSDTAGTCY
light: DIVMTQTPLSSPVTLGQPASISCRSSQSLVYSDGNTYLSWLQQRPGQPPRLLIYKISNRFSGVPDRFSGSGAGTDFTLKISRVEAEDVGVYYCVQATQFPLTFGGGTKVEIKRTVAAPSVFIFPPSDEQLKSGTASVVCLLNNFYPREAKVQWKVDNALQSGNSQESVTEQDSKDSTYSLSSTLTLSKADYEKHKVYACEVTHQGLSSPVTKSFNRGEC
chain: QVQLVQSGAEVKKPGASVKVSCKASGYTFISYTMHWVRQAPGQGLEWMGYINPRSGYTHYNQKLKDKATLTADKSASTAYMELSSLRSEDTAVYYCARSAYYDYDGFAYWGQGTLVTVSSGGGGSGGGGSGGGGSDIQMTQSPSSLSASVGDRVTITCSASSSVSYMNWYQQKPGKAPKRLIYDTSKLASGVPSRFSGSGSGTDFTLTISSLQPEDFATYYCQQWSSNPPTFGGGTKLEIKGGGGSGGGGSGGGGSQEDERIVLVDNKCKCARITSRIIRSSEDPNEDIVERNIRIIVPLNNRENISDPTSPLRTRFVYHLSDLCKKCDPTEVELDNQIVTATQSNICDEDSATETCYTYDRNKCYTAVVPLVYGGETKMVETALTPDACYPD
[1]
  T-cell directed B-cell killing, LDH release, EC50 on DB cells: 0.0004 µg/mL
  T-cell directed B-cell killing, LDH release, EC50 on DOHH2 cells: 0.012 µg/mL
  T-cell directed B-cell killing, LDH release, EC50 on Z-138 cells: 0.033 µg/mL
[2]
  T-cell directed B-cell killing, LDH release, EC50 on DB cells (molar): 0.0004 nM

B2: rituximab (IgG1) (antibody, V domains shown)
VH: QVQLQQPGAELVKPGASVKMSCKASGYTFTSYNMHWVKQTPGRGLEWIGAIYPGNGDTSYNQKFKGKATLTADKSSSTAYMQLSSLTSEDSAVYYCARSTYYGGDWYFNVWGAGTTVTVSA
VL: QIVLSQSPAILSASPGEKVTMTCRASSSVSYIHWFQQKPGSSPKPWIYATSNLASGVPVRFSGSGSGTSYSLTISRVEAEDAATYYCQQWTSNPPTFGGGTKLEIKR
[2]
  KILR cytotoxicity assay, potency relative to the 1.5.3 IgM antibodies: ≥ 30 fold less potent
[3]
  CDC (IC50) on Raji cells: > 50 µg/mL
[4]
  CDC EC50 on DOHH-2 cells: 22 nM
  CDC EC50 on Z-138 cells: > 100 nM

B3: 1.5.3 IgG (IgG1) (antibody, V domains shown)
VH: EVQLVQSGAEVKKPGESLKISCKGSGYSFTSYWIGWVRQMPGKGLEWMGIIYPGDSDTRYSPSFQGQVTISADKSITTAYLQWSSLKASDTAMYYCARHPSYGSGSPNFDYWGQGTLVTVSS
VL: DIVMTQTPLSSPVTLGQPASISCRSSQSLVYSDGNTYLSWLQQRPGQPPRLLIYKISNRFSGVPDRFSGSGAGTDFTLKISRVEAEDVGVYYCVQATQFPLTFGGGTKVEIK
[4]
  CDC EC50 on DOHH-2 cells: 4.6 nM
  CDC EC50 on Z-138 cells: > 100 nM

B4: Rituxan IgM+V15J (bispecific anti-CD20 x anti-CD3 IgM pentamer) (bispecific antibody)
heavy: QVQLQQPGAELVKPGASVKMSCKASGYTFTSYNMHWVKQTPGRGLEWIGAIYPGNGDTSYNQKFKGKATLTADKSSSTAYMQLSSLTSEDSAVYYCARSTYYGGDWYFNVWGAGTTVTVSSGSASAPTLFPLVSCENSPSDTSSVAVGCLAQDFLPDSITFSWKYKNNSDISSTRGFPSVLRGGKYAATSQVLLPSKDVMQGTDEHVVCKVQHPNGNKEKNVPLPVIAELPPKVSVFVPPRDGFFGNPRKSKLICQATGFSPRQIQVSWLREGKQVGSGVTTDQVQAEAKESGPTTYKVTSTLTIKESDWLSQSMFTCRVDHRGLTFQQNASSMCVPDQDTAIRVFAIPPSFASIFLTKSTKLTCLVTDLTTYDSVTISWTRQNGEAVKTHTNISESHPNATFSAVGEASICEDDWNSGERFTCTVTHTDLPSPLKQTISRPKGVALHRPDVYLLPPAREQLNLRESATITCLVTGFSPADVFVQWMQRGQPLSPEKYVTSAPMPEPQAPGRYFAHSILTVSEEEWNTGETYTCVVAHEALPNRVTERTVDKSTGKPTLYNVSLVMSDTAGTCY
light: QIVLSQSPAILSASPGEKVTMTCRASSSVSYIHWFQQKPGSSPKPWIYATSNLASGVPVRFSGSGSGTSYSLTISRVEAEDAATYYCQQWTSNPPTFGGGTKLEIKRTVAAPSVFIFPPSDEQLKSGTASVVCLLNNFYPREAKVQWKVDNALQSGNSQESVTEQDSKDSTYSLSSTLTLSKADYEKHKVYACEVTHQGLSSPVTKSFNRGEC
chain: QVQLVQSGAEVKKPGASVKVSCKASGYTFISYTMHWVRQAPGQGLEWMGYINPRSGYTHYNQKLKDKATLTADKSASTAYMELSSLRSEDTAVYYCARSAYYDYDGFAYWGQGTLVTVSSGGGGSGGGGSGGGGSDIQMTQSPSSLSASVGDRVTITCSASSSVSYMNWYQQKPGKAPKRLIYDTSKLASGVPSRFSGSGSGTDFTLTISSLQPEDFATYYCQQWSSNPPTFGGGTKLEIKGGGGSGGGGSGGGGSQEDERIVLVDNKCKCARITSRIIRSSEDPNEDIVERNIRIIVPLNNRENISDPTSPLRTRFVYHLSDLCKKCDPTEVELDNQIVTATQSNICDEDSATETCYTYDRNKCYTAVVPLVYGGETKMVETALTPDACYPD
[1]
  T-cell directed B-cell killing, LDH release, EC50 on DB cells: 0.0005 µg/mL
  T-cell directed B-cell killing, LDH release, EC50 on DOHH2 cells: 0.013 µg/mL
  T-cell directed B-cell killing, LDH release, EC50 on Z-138 cells: 0.03 µg/mL
